This note sets out measurements from US20210063414A1, “METHODS FOR PREVENTING AND/OR TREATING BONE LOSS CONDITIONS BY MODULATING IRISIN” (Dana-Farber Cancer Institute, Inc., priority 2018, published 2021).

The target of one data set is T1, integrin α11/β1 (Homo sapiens, UniProt P05556+Q9UKX5).
T1 construct: expressed in transfected cells; host or cells: HEK293T
Put plainly: FAK phosphorylation in HEK293T cells with forced expression of integrin α11/β1. It counts as cell-based. As to the method: 100 nM irisin was incubated with 5 nM indicated his-tag integrins followed by immunoprecipitation using Ni-NTA agaroses. Precipitated integrins and co-precipitated irisin were analyzed by immunoblot analysis. […] HEK293T cells were seeded and incubated until 50% cell density. The cells were transfected with 0.1 μg plasmids of indicated integrins. After 48 hours, the cells were re-split to indicated dose of vitronectin-coated plates. Cells were incubated with culture medium for 3 hours. Cells were lysed to detect the indicated protein level using immunoblot analysis. FIG. 15C and FIG. 15D show the immunoblot data. Cells were treated and analyzed as FIG. 14B except using plasmids encoding integrin α5/β1 or integrin α11/β1 (FIG. 15C) integrin αV/β1(FIG. 15D).
HEK293T cells were set up for experiments at 1×10^5 cells per well in 6 well plate. On day 2, cells were transiently transfected with the indicated plasmids with FuGENE® 6 reagent (Roche Applied Science) according to the manufacturer's protocol. […]
Cells were harvested in RIPA buffer containing protease-inhibitor cocktail and phosphataseinhibitor cocktail. […] Protein levels were analyzed via western blot using indicated antibody. […] Protein levels were analyzed using western blot against indicated antibody.

Another data set deals with integrin αV/β5 (Homo sapiens, UniProt P06756+P18084). Put plainly: Differential HDX/MS of irisin and integrin αV/β5. Conditions: 10 μM irisin, 30 μM integrin αV/β5. The class given is binding. As to the method: Differential HDX-MS experiments were conducted as previously described with a few modifications (Chalmers et al. (2006) Anal. Chen. 78:1005-1014).
Protein samples were injected for inline pepsin digestion and the resulting peptides were identified using tandem MS (MS/MS) with an Orbitrap™ mass spectrometer (Fusion Lumos, ThermoFisher). Following digestion, peptides were desalted on a C8 trap column and separated on a 1 hour linear gradient of 5-40% B (A is 0.3% formic acid and B is 0.3% formic acid 95% CH3CN). Product ion spectra were acquired in data-dependent mode with a one second duty cycle such that the most abundant ions selected for the product ion analysis by higher-energy collisional dissociation between survey scan events occurring once per second. Following MS2 acquisition, the precursor ion was excluded for 16 seconds. […]
HDX-MS analysis: Apo proteins (irisin and integrin αV/β5) were analyzed at 10 μM each. […] The intensity weighted mean m/z centroid value of each peptide envelope was calculated and subsequently converted into a percentage of deuterium incorporation. […] Statistical significance for the differential HDX data was determined by an unpaired t-test for each time point, a procedure that was integrated into the HDX Workbench software (Pascal et al. (2012) J Am. Soc. Mass Spectrom. 23:1512-1521). […]

T1 sequence (Q9UKX5 23-1188): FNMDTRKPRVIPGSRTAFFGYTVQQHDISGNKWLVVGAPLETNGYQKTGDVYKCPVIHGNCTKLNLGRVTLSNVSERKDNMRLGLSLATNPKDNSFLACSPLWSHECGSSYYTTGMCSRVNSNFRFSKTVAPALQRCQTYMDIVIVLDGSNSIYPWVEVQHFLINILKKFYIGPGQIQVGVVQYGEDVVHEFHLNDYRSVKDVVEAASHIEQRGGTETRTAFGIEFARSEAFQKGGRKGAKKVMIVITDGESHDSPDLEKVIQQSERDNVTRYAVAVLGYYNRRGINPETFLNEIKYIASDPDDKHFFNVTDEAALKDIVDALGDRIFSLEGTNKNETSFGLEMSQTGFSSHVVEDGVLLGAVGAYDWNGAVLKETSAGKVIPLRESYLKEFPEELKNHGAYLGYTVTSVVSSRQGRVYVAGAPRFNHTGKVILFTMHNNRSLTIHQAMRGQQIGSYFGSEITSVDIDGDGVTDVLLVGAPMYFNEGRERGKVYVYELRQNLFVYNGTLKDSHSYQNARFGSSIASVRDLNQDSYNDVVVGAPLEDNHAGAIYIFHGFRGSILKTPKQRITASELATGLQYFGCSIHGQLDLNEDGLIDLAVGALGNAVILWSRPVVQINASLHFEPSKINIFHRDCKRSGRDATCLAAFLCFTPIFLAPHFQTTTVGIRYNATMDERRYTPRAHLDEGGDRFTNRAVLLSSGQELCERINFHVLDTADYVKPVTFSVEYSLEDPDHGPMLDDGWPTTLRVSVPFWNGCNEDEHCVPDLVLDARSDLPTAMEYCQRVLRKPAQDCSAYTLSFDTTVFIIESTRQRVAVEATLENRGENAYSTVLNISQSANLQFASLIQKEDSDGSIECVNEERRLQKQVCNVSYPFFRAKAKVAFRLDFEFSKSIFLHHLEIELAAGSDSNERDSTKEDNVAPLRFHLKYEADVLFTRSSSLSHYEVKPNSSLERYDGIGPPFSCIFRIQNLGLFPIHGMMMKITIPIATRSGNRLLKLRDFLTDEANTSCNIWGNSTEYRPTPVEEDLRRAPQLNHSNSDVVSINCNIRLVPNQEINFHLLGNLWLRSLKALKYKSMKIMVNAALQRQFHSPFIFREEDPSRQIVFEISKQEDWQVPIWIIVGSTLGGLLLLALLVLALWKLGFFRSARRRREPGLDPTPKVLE
T1 sequence (P05556 21-798): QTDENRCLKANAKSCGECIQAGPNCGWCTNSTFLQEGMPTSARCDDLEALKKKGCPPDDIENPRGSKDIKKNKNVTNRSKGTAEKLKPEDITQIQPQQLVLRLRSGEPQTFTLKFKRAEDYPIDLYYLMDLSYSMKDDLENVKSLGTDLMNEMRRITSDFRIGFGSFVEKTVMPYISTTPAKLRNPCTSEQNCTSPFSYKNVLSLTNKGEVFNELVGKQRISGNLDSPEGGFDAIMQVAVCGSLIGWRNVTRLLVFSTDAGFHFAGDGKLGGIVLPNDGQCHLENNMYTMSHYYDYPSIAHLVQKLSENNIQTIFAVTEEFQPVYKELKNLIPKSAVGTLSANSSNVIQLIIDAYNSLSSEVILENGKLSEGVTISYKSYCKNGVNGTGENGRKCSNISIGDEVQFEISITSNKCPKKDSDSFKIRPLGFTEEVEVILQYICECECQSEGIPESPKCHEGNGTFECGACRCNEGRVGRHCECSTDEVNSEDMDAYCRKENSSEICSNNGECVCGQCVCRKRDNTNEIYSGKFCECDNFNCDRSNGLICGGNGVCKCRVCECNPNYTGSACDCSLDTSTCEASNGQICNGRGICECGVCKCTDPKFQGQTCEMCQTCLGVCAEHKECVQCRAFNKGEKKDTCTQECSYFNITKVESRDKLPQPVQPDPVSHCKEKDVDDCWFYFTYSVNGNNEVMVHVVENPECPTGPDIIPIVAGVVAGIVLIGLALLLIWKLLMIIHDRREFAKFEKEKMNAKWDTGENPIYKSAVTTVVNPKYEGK
integrin αV/β5, sequence (P18084 24-719 limits assumed): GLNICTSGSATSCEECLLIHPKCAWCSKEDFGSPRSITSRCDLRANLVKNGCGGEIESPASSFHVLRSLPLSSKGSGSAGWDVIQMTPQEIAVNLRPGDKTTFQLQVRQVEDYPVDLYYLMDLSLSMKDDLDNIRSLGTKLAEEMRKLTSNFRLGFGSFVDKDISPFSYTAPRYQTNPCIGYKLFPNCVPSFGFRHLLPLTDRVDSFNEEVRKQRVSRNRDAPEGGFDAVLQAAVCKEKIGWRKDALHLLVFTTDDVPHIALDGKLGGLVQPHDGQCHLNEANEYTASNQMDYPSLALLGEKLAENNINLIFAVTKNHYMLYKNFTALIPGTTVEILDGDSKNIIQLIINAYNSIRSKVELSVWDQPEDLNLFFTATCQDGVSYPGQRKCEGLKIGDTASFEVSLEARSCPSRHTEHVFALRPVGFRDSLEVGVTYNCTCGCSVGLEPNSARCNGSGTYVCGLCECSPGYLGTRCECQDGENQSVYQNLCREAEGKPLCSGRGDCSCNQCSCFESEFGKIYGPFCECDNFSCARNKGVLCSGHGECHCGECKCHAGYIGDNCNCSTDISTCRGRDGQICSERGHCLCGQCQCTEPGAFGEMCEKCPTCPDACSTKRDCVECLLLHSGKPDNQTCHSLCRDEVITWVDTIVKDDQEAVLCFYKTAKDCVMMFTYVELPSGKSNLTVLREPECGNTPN
integrin αV/β5, sequence (P06756 31-889 limits assumed): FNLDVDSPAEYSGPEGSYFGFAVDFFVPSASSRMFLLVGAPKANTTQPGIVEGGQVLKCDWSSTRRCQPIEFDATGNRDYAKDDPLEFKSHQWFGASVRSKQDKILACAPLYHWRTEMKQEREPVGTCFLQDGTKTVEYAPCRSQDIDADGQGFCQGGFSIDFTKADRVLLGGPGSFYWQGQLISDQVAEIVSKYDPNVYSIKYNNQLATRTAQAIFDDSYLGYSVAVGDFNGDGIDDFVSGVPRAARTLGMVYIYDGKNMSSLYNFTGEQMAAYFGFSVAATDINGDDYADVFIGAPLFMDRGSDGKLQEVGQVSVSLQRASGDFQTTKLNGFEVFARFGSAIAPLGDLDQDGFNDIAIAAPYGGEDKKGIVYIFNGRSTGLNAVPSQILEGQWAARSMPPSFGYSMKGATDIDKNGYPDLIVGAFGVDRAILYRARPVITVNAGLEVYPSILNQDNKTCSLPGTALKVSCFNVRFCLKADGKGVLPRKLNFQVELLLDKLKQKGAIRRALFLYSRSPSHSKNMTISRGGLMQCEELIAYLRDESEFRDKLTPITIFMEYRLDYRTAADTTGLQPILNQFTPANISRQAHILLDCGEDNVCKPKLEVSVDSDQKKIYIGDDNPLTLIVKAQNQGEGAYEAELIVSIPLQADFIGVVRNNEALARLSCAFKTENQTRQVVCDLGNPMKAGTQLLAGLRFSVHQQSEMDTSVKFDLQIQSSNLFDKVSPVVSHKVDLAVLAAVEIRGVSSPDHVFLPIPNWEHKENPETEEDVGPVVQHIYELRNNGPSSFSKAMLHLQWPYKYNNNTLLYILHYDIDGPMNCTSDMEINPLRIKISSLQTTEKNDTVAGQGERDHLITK
integrin αV/β5, sequence (P06756 891-992 partner limits assumed): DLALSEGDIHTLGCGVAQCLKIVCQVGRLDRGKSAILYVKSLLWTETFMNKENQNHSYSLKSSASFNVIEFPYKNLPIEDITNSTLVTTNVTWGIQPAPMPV

B1: irisin: secreted cleaved form of FNDC5; recombinant human/mouse irisin with C-terminal his tag produced in HEK293 cells (protein)
chain: DSPSAPVNVTVRHLKANSAVVSWDVLEDEVVIGFAISQQKKDVRMLRFIQEVNTTTRSCALWDLEEDTEYIVHVQAISIQGQSPASEPVLFKTPREAEKMASKNKDEVTMKE
modifications: left off: small tags and cut ends
notes: secreted cleaved form of FNDC5; recombinant human/mouse irisin with C-terminal his tag produced in HEK293 cells
B1: the “phosphorylation of FAK upon irisin treatment” value with integrin α11/β1 is “little phosphorylation of FAK above background”. The “direct interaction with integrin αV/β5 (HDX/MS)” value in the data set with integrin αV/β5 was “directly binds integrin αV/β5”.
